From PMC8263621, “A simple label-free electrochemical sensor for sensitive detection of alpha-fetoprotein based on specific aptamer immobilized platinum nanoparticles/carboxylated-graphene oxide”

Target: T1, alpha-fetoprotein (AFP) (UniProt P02771 19-609)
T1 sequence: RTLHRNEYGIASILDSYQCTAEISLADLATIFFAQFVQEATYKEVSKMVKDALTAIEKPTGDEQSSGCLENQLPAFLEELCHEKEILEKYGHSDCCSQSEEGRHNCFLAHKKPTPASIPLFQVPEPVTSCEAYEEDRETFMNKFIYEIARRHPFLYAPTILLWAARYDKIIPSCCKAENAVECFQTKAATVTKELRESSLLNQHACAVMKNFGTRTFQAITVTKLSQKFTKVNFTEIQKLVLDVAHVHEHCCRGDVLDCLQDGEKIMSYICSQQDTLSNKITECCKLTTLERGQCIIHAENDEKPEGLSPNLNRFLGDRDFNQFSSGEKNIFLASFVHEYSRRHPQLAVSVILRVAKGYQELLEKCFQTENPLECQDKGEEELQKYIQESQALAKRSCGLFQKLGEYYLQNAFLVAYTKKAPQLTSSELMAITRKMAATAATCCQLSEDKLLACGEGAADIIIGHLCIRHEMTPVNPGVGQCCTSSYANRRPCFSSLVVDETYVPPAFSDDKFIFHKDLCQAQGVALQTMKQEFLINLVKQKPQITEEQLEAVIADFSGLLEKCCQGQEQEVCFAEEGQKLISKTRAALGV
Assay: electrochemical aptasensor (CV/SWV); aptamer immobilized on PtNPs/GO-COOH/SPGE; 3 mM hydroquinone probe; LOD 1.22 ng/mL, linear 3-30 ng/mL (not a Kd); 10 mM PBS pH 7.4, 3 mM hydroquinone for readout; BSA-blocked electrode (0.25% w/v); AFP incubation 45 min at room temperature
Settings: protein: commercial

B1: AFP aptamer (ssDNA)
DNA: GTGACGCTCCTAACGCTGACTCAGGTGCAGTTCTCGACTCGGTCTTGATGTGGGTCCTGTCCGTCCGAACCAATC
modifications: 5'-NH2
- binding result: binds
